In publication PMC8529090 (Computational and Structural Biotechnology Journal, 2021):

B1: recombinant L1CAM ectodomain (L1CAM-ED) (domain or fragment, human, UniProt P32004 20-1120, looked up)
chain: IQIPEEYEGHHVMEPPVITEQSPRRLVVFPTDDISLKCEASGKPEVQFRWTRDGVHFKPKEELGVTVYQSPHSGSFTITGNNSNFAQRFQGIYRCFASNKLGTAMSHEIRLMAEGAPKWPKETVKPVEVEEGESVVLPCNPPPSAEPLRIYWMNSKILHIKQDERVTMGQNGNLYFANVLTSDNHSDYICHAHFPGTRTIIQKEPIDLRVKATNSMIDRKPRLLFPTNSSSHLVALQGQPLVLECIAEGFPTPTIKWLRPSGPMPADRVTYQNHNKTLQLLKVGEEDDGEYRCLAENSLGSARHAYYVTVEAAPYWLHKPQSHLYGPGETARLDCQVQGRPQPEVTWRINGIPVEELAKDQKYRIQRGALILSNVQPSDTMVTQCEARNRHGLLLANAYIYVVQLPAKILTADNQTYMAVQGSTAYLLCKAFGAPVPSVQWLDEDGTTVLQDERFFPYANGTLGIRDLQANDTGRYFCLAANDQNNVTIMANLKVKDATQITQGPRSTIEKKGSRVTFTCQASFDPSLQPSITWRGDGRDLQELGDSDKYFIEDGRLVIHSLDYSDQGNYSCVASTELDVVESRAQLLVVGSPGPVPRLVLSDLHLLTQSQVRVSWSPAEDHNAPIEKYDIEFEDKEMAPEKWYSLGKVPGNQTSTTLKLSPYVHYTFRVTAINKYGPGEPSPVSETVVTPEAAPEKNPVDVKGEGNETTNMVITWKPLRWMDWNAPQVQYRVQWRPQGTRGPWQEQIVSDPFLVVSNTSTFVPYEIKVQAVNSQGKGPEPQVTIGYSGEDYPQAIPELEGIEILNSSAVLVKWRPVDLAQVKGHLRGYNVTYWREGSQRKHSKRHIHKDHVVVPANTTSVILSGLRPYSSYHLEVQAFNGRGSGPASEFTFSTPEGVPGHPEALHLECQSNTSLLLRWQPPLSHNGVLTGYVLSYHPLDEGGKGQLSFNLRDPELRTHNLTDLSPHLRYRFQLQATTKEGPGEAIVREGGTMALSGISDFGNISATAGENYSVVSWVPKEGQCNFRFHILFKALGEEKGGASLSPQYVSYNQSSYTQWDLQPDTDYEIHLFKERMFRHQMAVKTNGTGRVRLPPAGFATE

How the values were obtained:
[1] = target: the molecule itself; assay: SPR
[2] = target: B1; assay: SPR

## B1
[1]
  Kd: 17 ± 1.3 nM

## FIPTDGRHFVSQTTG [CNTN2-A peptide]
[2]
  percent reduction of the RUmax of L1CAM-ED binding to immobilised L1CAM-ED: 20%

## PIPGDSRVVVLPSG [DCC-A peptide]
[2]
  percent reduction of the RUmax of L1CAM-ED binding to immobilised L1CAM-ED: 20%

## LKEEEGRITIRGGK [ROBO3-A peptide]
[2]
  percent reduction of the RUmax of L1CAM-ED binding to immobilised L1CAM-ED: 20%
